According to patent US20210009686A1:

Assays:
[1] = biological target: claudin 18.2 (CLDN18.2) (human); assay: in-cell ELISA on HEK293-CLDN18.2 cells
[2] = biological target: claudin 18.1 (CLDN18.1) (human) (UniProt P56856); assay: in-cell ELISA on HEK293-CLDN18.1 cells
Chain of claudin 18.1 (CLDN18.1) (human) (P56856 whole entry): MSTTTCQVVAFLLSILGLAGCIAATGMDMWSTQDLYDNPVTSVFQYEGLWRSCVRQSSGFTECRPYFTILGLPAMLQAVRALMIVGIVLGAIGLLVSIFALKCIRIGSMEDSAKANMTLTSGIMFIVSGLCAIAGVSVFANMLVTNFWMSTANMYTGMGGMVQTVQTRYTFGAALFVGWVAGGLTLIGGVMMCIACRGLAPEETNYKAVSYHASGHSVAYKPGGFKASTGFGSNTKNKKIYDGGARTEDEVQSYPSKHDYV

## mouse IgG (control) (antibody)
[1]
  OD450/µg IgG: 3.23 OD450/µg IgG
[2]
  OD450/µg IgG: 1.54 OD450/µg IgG
